# In the Immune Epitope Database (IEDB):
# Assays:
# HLA-A*26:01 = test: IEDB peptide-MHC binding, purified MHC/competitive/radioactivity; filed as Kd, often an IC50 or EC50 that approximates it; ≥ and ≤ were set here for values at or beyond the usual limits of such assays
# HLA-A*30:02 = test: as above
# HLA-B*35:01 = test: as above
# HLA-B*15:01 = test: as above
# HLA-A*23:01 = test: as above
# HLA-A*24:02 = test: as above
# HLA-A*01:01 = test: as above
# HLA-A*29:02 = test: as above
# HLA-B*51:01 = test: as above
# HLA-B*53:01 = test: as above
# HLA-A*32:01 = test: as above
# HLA-B*44:02 = test: IEDB peptide-MHC binding, purified MHC/direct/fluorescence; filed as Kd, often an IC50 or EC50 that approximates it; ≥ and ≤ were set here for values at or beyond the usual limits of such assays; conditions: source organism: Influenza A virus (A/tern/Australia/1/04(H2N5))
# HLA-B*40:01 = test: as above; conditions: source organism: Influenza A virus (A/tern/Australia/1/04(H2N5))
# HLA-B*18:01 = test: as above; conditions: source organism: Influenza A virus (A/tern/Australia/1/04(H2N5))
# HLA-A*30:01 = test: IEDB peptide-MHC binding, purified MHC/competitive/radioactivity; filed as Kd, often an IC50 or EC50 that approximates it; ≥ and ≤ were set here for values at or beyond the usual limits of such assays
# HLA-B*58:01 = test: IEDB peptide-MHC binding, purified MHC/direct/fluorescence; filed as Kd, often an IC50 or EC50 that approximates it; ≥ and ≤ were set here for values at or beyond the usual limits of such assays; conditions: source organism: Vibrio alginolyticus 12G01
# HLA-B*57:01 = test: as above; conditions: source organism: Vibrio alginolyticus 12G01
# HLA-A*68:01 = test: IEDB peptide-MHC binding, purified MHC/competitive/radioactivity; filed as Kd, often an IC50 or EC50 that approximates it; ≥ and ≤ were set here for values at or beyond the usual limits of such assays; conditions: source organism: Triticum aestivum
# HLA-A*33:01 = test: as above; conditions: source organism: Triticum aestivum
# HLA-A*11:01 = test: as above; conditions: source organism: Triticum aestivum
# HLA-A*31:01 = test: as above; conditions: source organism: Triticum aestivum
# HLA-A*03:01 = test: as above; conditions: source organism: Triticum aestivum
# [1] = source organism: Dengue virus 3 Sri Lanka/1266/2000
# [2] = source organism: SARS coronavirus Tor2
# [3] = source organism: Dengue virus 1 Brazil/97-11/1997
# [4] = source organism: Dengue virus 1 Nauru/West Pac/1974
# [5] = source organism: Dengue virus 4 Philippines/H241/1956
# [6] = source organism: Vaccinia virus WR
# [7] = source organism: Dengue virus 2 Jamaica/1409/1983
# [8] = source organism: Lassa virus Josiah
# [9] = source organism: Mammarenavirus guanaritoense
# [10] = source organism: Triticum aestivum
sequence,measurement,setting,value
LIVSGIFPY,Kd,HLA-A*26:01; [1],1160 nM
same,Kd,HLA-A*30:02; [1],≥ 76900 nM
same,Kd,HLA-B*35:01; [1],82.7 nM
same,Kd,HLA-B*15:01; [1],2.91 nM
LKEPCPSGTY,Kd,HLA-A*23:01; [2],≥ 70000 nM
same,Kd,HLA-A*26:01; [2],5440 nM
same,Kd,HLA-A*24:02; [2],≥ 70300 nM
same,Kd,HLA-A*30:02; [2],69.8 nM
same,Kd,HLA-A*01:01; [2],14100 nM
same,Kd,HLA-A*29:02; [2],1560 nM
LPTALAFHL,Kd,HLA-B*51:01; [3],1410 nM
same,Kd,HLA-B*53:01; [3],2.16 nM
LTKHPNQEY,Kd,HLA-A*23:01; [2],≥ 77800 nM
same,Kd,HLA-A*26:01; [2],≥ 34300 nM
same,Kd,HLA-A*24:02; [2],≥ 77600 nM
same,Kd,HLA-A*30:02; [2],153 nM
same,Kd,HLA-A*01:01; [2],17300 nM
same,Kd,HLA-A*29:02; [2],3400 nM
LYAVATTII,Kd,HLA-A*23:01; [4],211 nM
same,Kd,HLA-B*51:01; [4],1390 nM
same,Kd,HLA-A*24:02; [4],59.7 nM
LYIIKLVFL,Kd,HLA-A*23:01; [2],0.179 nM
same,Kd,HLA-A*26:01; [2],≥ 21000 nM
same,Kd,HLA-A*24:02; [2],0.268 nM
same,Kd,HLA-A*30:02; [2],13500 nM
same,Kd,HLA-A*01:01; [2],2150 nM
same,Kd,HLA-A*29:02; [2],3110 nM
MAMTCIAVG,Kd,HLA-B*35:01; [5],116 nM
MLFYLEEPI,Kd,HLA-A*32:01; [6],2.51 nM
same,Kd,HLA-B*15:01; [6],45.2 nM
MLHNFLPHM,Kd,HLA-B*15:01; [6],41 nM
MSPCRMFSF,Kd,HLA-B*15:01; [6],17.3 nM
NKDGFLYVY,Kd,HLA-A*23:01; [2],≥ 77800 nM
same,Kd,HLA-A*26:01; [2],14300 nM
same,Kd,HLA-A*24:02; [2],≥ 77600 nM
same,Kd,HLA-A*30:02; [2],2830 nM
same,Kd,HLA-A*01:01; [2],13900 nM
same,Kd,HLA-A*29:02; [2],1130 nM
NVINYFNRM,Kd,HLA-B*15:01; [6],960 nM
PFGDSYIVI,Kd,HLA-A*23:01; [5],723 nM
PFVVSTGYHF,Kd,HLA-A*23:01; [2],3.03 nM
same,Kd,HLA-A*26:01; [2],974 nM
same,Kd,HLA-A*24:02; [2],67.9 nM
same,Kd,HLA-A*30:02; [2],11800 nM
same,Kd,HLA-A*01:01; [2],4890 nM
same,Kd,HLA-A*29:02; [2],257 nM
PVSDLKYSW,Kd,HLA-B*53:01; source organism: Dengue virus 4 Dominica/814669/1981,1690 nM
PYPDPSRIL,Kd,HLA-A*23:01; [2],19800 nM
same,Kd,HLA-A*26:01; [2],≥ 77900 nM
same,Kd,HLA-A*24:02; [2],≥ 83300 nM
same,Kd,HLA-A*30:02; [2],≥ 75000 nM
same,Kd,HLA-A*01:01; [2],≥ 78100 nM
same,Kd,HLA-A*29:02; [2],≥ 35900 nM
RQMEGEGIF,Kd,HLA-A*32:01; [7],140 nM
same,Kd,HLA-B*15:01; [7],5.85 nM
RSFTFKEGF,Kd,HLA-B*15:01; [6],34.8 nM
SETQGTEKL,Kd,HLA-B*44:02,≥ 20000 nM
same,Kd,HLA-B*40:01,10.5 nM
same,Kd,HLA-B*18:01,2040 nM
SIISLFYTF,Kd,HLA-A*32:01; [6],5.71 nM
same,Kd,HLA-B*15:01; [6],1.37 nM
SIKNLVSQF,Kd,HLA-B*15:01; [6],24.7 nM
SSGCYIHFF,Kd,HLA-A*30:01; [8],6860 nM
same,Kd,HLA-A*26:01; [8],≥ 64100 nM
same,Kd,HLA-A*30:02; [8],11500 nM
same,Kd,HLA-A*32:01; [8],≥ 33600 nM
same,Kd,HLA-A*01:01; [8],195 nM
same,Kd,HLA-A*29:02; [8],≥ 10000 nM
STGNYVHCF,Kd,HLA-A*30:01; [9],2740 nM
same,Kd,HLA-A*26:01; [9],≥ 69200 nM
same,Kd,HLA-A*30:02; [9],≥ 20300 nM
same,Kd,HLA-A*32:01; [9],12100 nM
same,Kd,HLA-A*01:01; [9],1300 nM
same,Kd,HLA-A*29:02; [9],≥ 35900 nM
TAVAPSMTM,Kd,HLA-B*35:01; [7],15.7 nM
VFIWFIFHF,Kd,HLA-B*15:01; source organism: Vaccinia virus,642 nM
VSEPELCLL,Kd,HLA-B*58:01,≥ 20000 nM
same,Kd,HLA-B*57:01,≥ 20000 nM
VSFQQPQQQY,Kd,HLA-A*23:01; [10],≥ 38800 nM
same,Kd,HLA-A*68:01,≥ 70200 nM
same,Kd,HLA-A*33:01,≥ 70000 nM
same,Kd,HLA-A*26:01; [10],≥ 26100 nM
same,Kd,HLA-A*11:01,1770 nM
same,Kd,HLA-A*24:02; [10],≥ 70300 nM
same,Kd,HLA-A*30:02; [10],0.209 nM
same,Kd,HLA-A*31:01,≥ 70000 nM
same,Kd,HLA-A*03:01,≥ 70100 nM
same,Kd,HLA-A*29:02; [10],55.5 nM
VTYLALLAAF,Kd,HLA-A*26:01; [7],≥ 69700 nM
same,Kd,HLA-A*01:01; [7],14800 nM
same,Kd,HLA-B*15:01; [7],40.7 nM
WIAASIILEF,Kd,HLA-B*15:01; [7],6.22 nM
YSDPLALREF,Kd,HLA-B*53:01; [3],899 nM
same,Kd,HLA-A*01:01; [3],21.3 nM
same,Kd,HLA-B*35:01; [3],1890 nM
